The values that follow come from patent publication US12703930B2, “Systems and methods for identification of MHC-I peptide epitopes” (THE REGENTS OF THE UNIVERSITY OF CALIFORNIA, priority 2020, dated 2026).

“Also recorded” adds a separate entry of the source.

One test concerns the target T1, TAPBPR/HLA-A02 complexes (Homo sapiens, UniProt P04439).
T1 construct: Plasmid DNA encoding the luminal domain of class I MHC (MHC-I) heavy chains H2-D^d, HLA-A*02:01; made in house
Briefly: native gel electrophoresis: release of HLA-A02 from tetramerized TAPBPR/HLA-A02 complexes by peptide. The test is classed as binding. The settings on record: biotinylated TAPBPR/HLA-A02 tetramerized with Streptavidin-PE; TAX 25, 125 or 2500 pmol; P18-I10 2500 pmol; 12% acrylamide gel.

Test [1] concerns murine cells expressing the B4.3.2 TCR, DMF5 human T cells expressing the MART-1 TCR, NY-ESO-1 human T cells expressing the NY-ESO-1 TCR. Briefly: flow cytometry staining of TCR-expressing cells with pMHC-I tetramers. The test is classed as cell-based. Particulars: TAPBPR at up to 1:100 molar ratio with MHC-I. Here is the method: Flow cytometry was performed using commercially available tetramers prepared by currently available methods (“conventional”), as well as by the disclosed methods involving TAPBPR peptide exchange using a stoichiometric amount of TAPBPR (“exchanged stoichiometric”), a catalytic amount of TAPBPR (1:100 TAPBPR: MHC-I) (“exchanged catalytic”) or a mismatched peptide. […]. Tetramers prepared by the disclosed methods performed similarly to tetramers commercially produced using conventional methods.
FIG. 7C illustrates a titration of P18410/H-2D^d binding to B.4.2.3 cells (top), HLA-A*2:01/MART-1 binding to DMF5 cells (middle) and HLA-A*2:01/NY-ESO-1 peptide binding to NY-ESO-1 cells (bottom). The binding compares commercially available pMHC-I tetramers prepared using conventional methods (refolded) with pMHC-I tetramers prepared using the disclosed methods. […]. Data shown is representative of triplicate assays and error-bars are standard deviation from the mean.
Tetramer formation The procedure for production of peptide loaded tetramers using TAPBPR mediated exchange is described in See, e.g., Overall et al., “High Throughput pMHC-I Tetramer Library Production Using Chaperone Mediated Peptide Exchange,” bioRxiv, doi:10.1101/653477 (2019), which is hereby incorporated by reference in its entirety herein. […]
(In general: In flow cytometry, cells or beads pass a laser one at a time.)

In a further test the target is goldilocks/HLA-A*02:01 (Homo sapiens, UniProt P04439). Put plainly: native gel electrophoresis assay of TAPBPR-mediated peptide exchange on p*MHC-I. The settings on record: overnight incubation, excess peptide of interest, TAPBPR:MHC molar ratio 1:1 down to 1:1000.

Source text for TAPBPR/HLA-A02 complexes: The peptide receptive MHC-I complexes were isolated by gel filtration and tetramerized with Streptavidin-PE.

On to RGPGRAFVTI [P18-I10], for which, in the test with TAPBPR/HLA-A02 complexes, the “release of HLA-A02 proteins from the TAPBPR/HLA-A02 complexes (native gel)” value was “showed no HLA-A02 proteins”. In the case of “TAPBPR: molecular chaperone; recombinant luminal domain expressed in Drosophila S2 cells”, the “peptide exchange catalysed by TAPBPR (FIGS. 7A-7C)” value in test [1] was “catalyzes efficient peptide exchange when present at up to 1:100 molar ratio with MHC-I”. Also, in the test with goldilocks/HLA-A*02:01, the “peptide exchange on goldilocks/HLA-A*02:01 (formation of pMHC species)” value is “complete peptide exchange; also recorded: catalyzes efficient peptide exchange when present at up to 1:1000 molar ratio with MHC-I”.
